Our source for the binding result and Kd values is US20060115476A1 (ADIENNE, published 2006).

T1: C5 beta chain (human, UniProt P01031 19-673, reduced with DTT and treated with iodoacetamide (alkylated cysteines))
T1 construct: domain: beta chain; Separated from purified C5 by reduction, alkylation and gel filtration on Superose 12; also called beta sub-unit of C5; C5 beta subunit
T1 sequence (looked up): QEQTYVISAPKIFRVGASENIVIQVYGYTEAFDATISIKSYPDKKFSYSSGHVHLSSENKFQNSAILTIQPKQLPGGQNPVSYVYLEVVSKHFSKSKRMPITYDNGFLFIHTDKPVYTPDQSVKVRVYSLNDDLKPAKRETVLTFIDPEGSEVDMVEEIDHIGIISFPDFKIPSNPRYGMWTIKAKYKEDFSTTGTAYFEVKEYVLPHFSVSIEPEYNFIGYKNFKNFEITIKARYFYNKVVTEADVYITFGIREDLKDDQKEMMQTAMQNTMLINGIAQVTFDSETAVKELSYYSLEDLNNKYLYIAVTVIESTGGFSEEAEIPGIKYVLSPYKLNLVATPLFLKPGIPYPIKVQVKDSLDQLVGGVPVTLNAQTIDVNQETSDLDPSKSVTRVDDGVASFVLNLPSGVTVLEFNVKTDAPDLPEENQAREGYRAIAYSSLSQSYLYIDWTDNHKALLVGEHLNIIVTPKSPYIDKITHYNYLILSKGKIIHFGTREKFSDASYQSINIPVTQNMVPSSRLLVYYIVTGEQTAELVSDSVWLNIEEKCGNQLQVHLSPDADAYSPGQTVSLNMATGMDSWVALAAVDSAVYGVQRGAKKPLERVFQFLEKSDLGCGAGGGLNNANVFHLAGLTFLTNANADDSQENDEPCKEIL

B1: scFv TS-A12/22 (scFv, not shown: small tags and cut ends)
scFv: DIRMTQSPDSLAVSLGERATINCKSSQSVLYSSNNKNYLAWYQQKPGQPPKLLIYWASTRESGVPDRFSGSGSGTDFTLTISSLQAEDVAVYYCQQYYSTPQLTFGGRTKVDIKSGGSTITSYNVYYTKLSSSGTQVQLQQSEGGVVQPGRSLRLSCAASGFTFSSYGMNWVRQAPGKGLEWVSYISSSSSTIYYADSVKGRFTISRDNSKNTLYLQMNSLRAEDTAVYYCARGPGMDVWGQGTTVTVSS
notes: Obtained from TS-A12 by VL chain shuffling; also called TS-A12/22 antibody
B2: unrelated peptide CS5, derived from fibronectin (GEEIQIGHIPREDVDYHLYP) (peptide)
peptide: GEEIQIGHIPREDVDYHLYP

One test deals with T1, C5 beta chain. Briefly: Western blot. Background: A western blot detects proteins with antibodies after separation by electrophoresis.
The target in test [1] is T2, C5 component of the complement system (purified C5) (human, UniProt P01031 19-673; P01031 678-1676).
T2 construct: domain: beta chain;domain: alpha chain; In haemolytic assays it was purified C5 or the C5 of human serum; also called factor C5; C5 antigen
T2 sequence (P01031 678-1676 limits assumed, one chain of several): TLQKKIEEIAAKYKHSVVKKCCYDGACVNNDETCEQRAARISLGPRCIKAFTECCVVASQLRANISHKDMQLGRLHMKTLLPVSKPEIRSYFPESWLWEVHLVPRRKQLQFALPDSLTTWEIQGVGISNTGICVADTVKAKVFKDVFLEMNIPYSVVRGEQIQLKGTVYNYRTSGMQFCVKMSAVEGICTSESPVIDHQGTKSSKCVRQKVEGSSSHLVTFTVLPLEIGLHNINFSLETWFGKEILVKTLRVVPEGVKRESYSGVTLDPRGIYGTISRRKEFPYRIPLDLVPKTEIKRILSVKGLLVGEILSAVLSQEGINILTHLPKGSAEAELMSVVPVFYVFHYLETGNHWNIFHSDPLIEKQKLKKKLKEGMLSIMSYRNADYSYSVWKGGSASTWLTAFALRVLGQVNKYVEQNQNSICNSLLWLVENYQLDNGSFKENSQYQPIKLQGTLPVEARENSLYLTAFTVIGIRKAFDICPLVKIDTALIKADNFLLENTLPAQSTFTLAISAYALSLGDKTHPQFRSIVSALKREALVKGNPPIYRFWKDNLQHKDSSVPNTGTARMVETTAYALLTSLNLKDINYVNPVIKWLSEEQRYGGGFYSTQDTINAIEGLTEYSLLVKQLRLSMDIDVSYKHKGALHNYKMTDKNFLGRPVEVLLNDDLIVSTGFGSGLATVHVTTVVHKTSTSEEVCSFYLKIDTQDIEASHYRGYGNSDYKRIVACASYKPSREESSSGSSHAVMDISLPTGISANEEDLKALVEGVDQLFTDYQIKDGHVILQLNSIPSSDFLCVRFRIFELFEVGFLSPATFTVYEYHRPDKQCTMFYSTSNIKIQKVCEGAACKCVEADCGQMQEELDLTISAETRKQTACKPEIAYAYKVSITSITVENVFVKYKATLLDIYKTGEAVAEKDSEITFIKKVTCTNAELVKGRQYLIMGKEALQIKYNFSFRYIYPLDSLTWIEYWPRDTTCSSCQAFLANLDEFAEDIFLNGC
Briefly: SPR, BIACORE 2000, C5 immobilised on the chip. In general terms: In SPR one partner is held on a chip, and binding of the other changes the refractive index at the surface.
Protocol: The microchip (CM5, Biacore) was prepared by direct conjugation of the C5 antigen with amines (20 μg/ml in 10 mM Sodium Acetate pH 4.5). The final level of immobilisation turned out to be approximately 1000 RU (Resonance Units). Association and dissociation of antibody molecules from the bio-chip were measured using an optical detection system (Surface Plasmon Resonance).
The analysis was carried out at 25° C., at a flow of 15 μl/min, using 4 different scFv concentrations in the range comprised between 100-300 nM, in PBS, 0.005% P20 (Biacore). The binding curves were interpolated 1:1 according to the model of Langmuir, using the dedicated software termed BIAevaluation (version 3.5) with correction for the mass transfer.

Test [2] has as its target B2. Briefly: competitive ELISA: scFv pre-incubated with the peptide, binding to C5 on solid phase. From the text: (§1) This peptide corresponds to region 727-744 of the mature protein and comprises the cleavage site of C5 convertase (indicated by the arrow) between glycine 733 and arginine 734 according to SwissProt numbering for human C5 (SEQ ID P01031). The peptide was used in a competitive ELISA assay on the C5 protein on solid phase. […] (SEQ ID No. 16 of sequence listing) corresponding to a fibronectin derived peptide termed CS5.
Background: An ELISA detects its analyte on a solid surface through an enzyme-linked reagent.

The test “scFv TS-A12/22” addresses B1. Briefly: competitive ELISA: scFv TSA-12/22 (1 µg/ml) pre-incubated with the peptide, then binding to C5 on solid phase, given as % of the saline control.
Source text: as §1

Protocol for C5 beta chain: Briefly the two subunits were electrophoresed in separate wells and transferred on nitrocellulose membranes. A solution containing Tris 50 mM pH 7.6, 0.5 M NaCl and 4% skimmed powder milk was used to block non-specific sites for 1 hour at 37° C. […] The enzymatic reaction was developed with blue tetrazolium and 5-bromo-4-chlorine-3-indolil phosphate (Sigma-Aldrich, 0.30 mg/ml) diluted in 0.1 M Tris-HCl pH 9.5 containing 0.1 M NaCl and 5 mM MgCl₂.

In general, Kd refers to the constant that tells how readily two partners part at equilibrium. Low readings indicate a tighter complex, high ones a looser complex. Turning to B1, the binding result with C5 beta chain was “no binding (tested: 100 ng of beta chain)”; in test [2], “no binding (tested: 800 ng)”. For the same molecule, binding in test [1] was put at a Kd of 0.018 µM.
Consider B2, for which the binding result with scFv TS-A12/22 is reported as “no binding (tested: 800 ng)”.
